Molecular target: the molecule itself
Assay: cross-linking; 10 ug protein in 10 ul, 1 mM DSP, 30 min at 25°C, 20 mM HEPES-KOH pH 7.6, 50 mM KCl, without or with pUC18 DNA (protein/DNA mass ratios 1:1 and 1:5); non-reducing 15% SDS-PAGE, Coomassie

B1: Sis7d (natural protein)
chain: MTTVKFKYKGEEKQVDTSKIKKVWRVGKMISFTYDEGGGKTGRGAVSEKDAPKELLQMLEKQKK
In the case of B1, the “stoichiometry N” value is reported as 2.

From PMC7373190, “Archaeal Chromatin Proteins Cren7 and Sul7d Compact DNA by Bending and Bridging” (mBio, 2020)
